In PMC4165372, “Nutritional status modulates box C/D snoRNP biogenesis by regulated subcellular relocalization of the R2TP complex” (Genome Biology, 2014):

T1: GST-Nop58-447 (S. cerevisiae, UniProt Q12499 1-447)
T1 construct: Cloned in pGEX-6P-1 (BamHI-XhoI); source: E. coli BL21(DE3) pRIL, purified (glutathione Sepharose 4B); not shown: GST, N-terminal, kept
T1 sequence (looked up): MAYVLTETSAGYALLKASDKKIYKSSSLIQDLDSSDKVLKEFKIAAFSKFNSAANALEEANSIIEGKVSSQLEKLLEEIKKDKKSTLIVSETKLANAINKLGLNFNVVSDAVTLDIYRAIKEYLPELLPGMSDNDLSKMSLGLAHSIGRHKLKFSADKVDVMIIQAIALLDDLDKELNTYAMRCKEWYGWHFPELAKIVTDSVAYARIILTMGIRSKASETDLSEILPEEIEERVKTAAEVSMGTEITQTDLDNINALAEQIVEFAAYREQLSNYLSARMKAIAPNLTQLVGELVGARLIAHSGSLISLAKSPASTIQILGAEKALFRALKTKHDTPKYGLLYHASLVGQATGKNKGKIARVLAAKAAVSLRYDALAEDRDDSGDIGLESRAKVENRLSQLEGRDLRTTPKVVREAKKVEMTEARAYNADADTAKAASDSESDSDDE

B1: GST-Nop58-MC (domain or fragment, S. cerevisiae, UniProt Q12499 158-447, looked up)
chain: KVDVMIIQAIALLDDLDKELNTYAMRCKEWYGWHFPELAKIVTDSVAYARIILTMGIRSKASETDLSEILPEEIEERVKTAAEVSMGTEITQTDLDNINALAEQIVEFAAYREQLSNYLSARMKAIAPNLTQLVGELVGARLIAHSGSLISLAKSPASTIQILGAEKALFRALKTKHDTPKYGLLYHASLVGQATGKNKGKIARVLAAKAAVSLRYDALAEDRDDSGDIGLESRAKVENRLSQLEGRDLRTTPKVVREAKKVEMTEARAYNADADTAKAASDSESDSDDE
notes: Nop58, S. cerevisiae, middle and C-terminal domains (lacks the N-terminal domain and the KKE/D repeat); start worked out from the forward primer NOP58-472-BamHI-F (nucleotide 472 = codon 158); The forward primer adds an ATG before the first Nop58 codon; also called pGST-Nop58-MC; pGEX-Nop58-MC; source: E. coli BL21(DE3) pRIL, purified (glutathione Sepharose 4B); not shown: GST, N-terminal, kept
B2: GST-Nop58-NM (domain or fragment, S. cerevisiae, UniProt Q12499 1-284, looked up)
chain: MAYVLTETSAGYALLKASDKKIYKSSSLIQDLDSSDKVLKEFKIAAFSKFNSAANALEEANSIIEGKVSSQLEKLLEEIKKDKKSTLIVSETKLANAINKLGLNFNVVSDAVTLDIYRAIKEYLPELLPGMSDNDLSKMSLGLAHSIGRHKLKFSADKVDVMIIQAIALLDDLDKELNTYAMRCKEWYGWHFPELAKIVTDSVAYARIILTMGIRSKASETDLSEILPEEIEERVKTAAEVSMGTEITQTDLDNINALAEQIVEFAAYREQLSNYLSARMKAIA
notes: Nop58, S. cerevisiae, N-terminal and middle domains (lacks the C-terminal domain); end worked out from the reverse primer NOP58-852-XhoI-R (nucleotide 852 = codon 284); also called pGST-Nop58-NM; pGEX-Nop58-NM; source: E. coli BL21(DE3) pRIL, purified (glutathione Sepharose 4B); not shown: GST, N-terminal, kept
B3: Pih1(1–230) (domain or fragment, S. cerevisiae, UniProt P38768 1-230, looked up)
chain: MADFLLRPIKQRHRNEDKYVSVDAADGSVSKIEPIADFVIKTKLLSANGPEKLQDGRKVFINVCHSPLVPKPEVDFNARIVFPLIIQNEWEIPIITSCYRMDHDKKGQECYVWDCCINSDCSRWICDDIQLREILVEWCLESCEIRDSVVLCRDRIAFPKMKKKGAELPALEVLNDELHQDYKAKMHKIIEEEAGDPMSILRGRNDDGDDNNDPDDGTLPPLFPIENKIS
notes: Pih1, S. cerevisiae, N-terminal domain, residues 1-230 of 344; also called N-terminal domain of Pih1
B4: full-length Pih1 (natural protein, S. cerevisiae, UniProt P38768 1-344, looked up)
chain: MADFLLRPIKQRHRNEDKYVSVDAADGSVSKIEPIADFVIKTKLLSANGPEKLQDGRKVFINVCHSPLVPKPEVDFNARIVFPLIIQNEWEIPIITSCYRMDHDKKGQECYVWDCCINSDCSRWICDDIQLREILVEWCLESCEIRDSVVLCRDRIAFPKMKKKGAELPALEVLNDELHQDYKAKMHKIIEEEAGDPMSILRGRNDDGDDNNDPDDGTLPPLFPIENKISGAKIEEIDKNEIAHRNLKQAPAPAPAPHEQQEDVPEYEVKMKRFKGAAYKLRILIENKAPNSKPDRFSPSYNFAENILYINGKLSIPLPRDIVVNAADIKIFHIRKERTLYIYI
notes: Pih1, S. cerevisiae, 344 amino acids

How the values were obtained:
Conditions in all cases: both partners purified
[1] = biological target: B4; assay: pull-down; GST-Nop58 variants immobilised on glutathione Sepharose 4B, incubated with Pih1 or Pih1(1–230) 40 min at 30°C in GST lysis buffer (1×PBS, 0.1% NP40, 10% glycerol, 1 mM DTT); washes with 0.5 M NaCl; Ponceau S and Western blot
[2] = biological target: T2, Rvb1/Rvb2 complex (S. cerevisiae, UniProt Q03940 1-463; Q12464 1-471); assay: pull-down; GST-Nop58-C on MagneGST glutathione particles incubated with 0.1 μM preformed Rvb1/2 or R2TP complex at 4°C for 16 h; washed with buffer H with 0.1 M KCl at 23°C; Western blot
T2 construct: Rvb1, S. cerevisiae; Rvb2, S. cerevisiae, untagged; also called Rvb1/2; preformed Rvb1/2; source: E. coli BL21(DE3) pRIL, co-expressed (pCOLADuet-1), purified (Ni-NTA, TEV protease, Superdex 200); not shown: His6 (HV-tag, with TEV site), N-terminal, cleaved

[3] = biological target: T3, R2TP complex (recombinant, preformed) (S. cerevisiae, UniProt Q03940 1-463; Q12464 1-471; P25638 1-111; P38768 1-344); assay: as above
T3 construct: Rvb1, S. cerevisiae; Rvb2, S. cerevisiae, untagged; Tah1, S. cerevisiae; Pih1, S. cerevisiae, untagged; also called preformed R2TP complex purified from E. coli; source: preformed complex purified from E. coli; not shown: His6 (HV-tag, with TEV site), N-terminal, cleaved; copies: + + +

[4] = biological target: B3; assay: pull-down; GST-Nop58 variants immobilised on glutathione Sepharose 4B, incubated with Pih1 or Pih1(1–230) 40 min at 30°C in GST lysis buffer (1×PBS, 0.1% NP40, 10% glycerol, 1 mM DTT); washes with 0.5 M NaCl; Ponceau S and Western blot
[5] = biological target: B1; assay: as above
[6] = biological target: B2; assay: as above
[7] = biological target: T1, GST-Nop58-447; assay: as above

T3 sequence (Q03940 whole entry, chain 1 of 3): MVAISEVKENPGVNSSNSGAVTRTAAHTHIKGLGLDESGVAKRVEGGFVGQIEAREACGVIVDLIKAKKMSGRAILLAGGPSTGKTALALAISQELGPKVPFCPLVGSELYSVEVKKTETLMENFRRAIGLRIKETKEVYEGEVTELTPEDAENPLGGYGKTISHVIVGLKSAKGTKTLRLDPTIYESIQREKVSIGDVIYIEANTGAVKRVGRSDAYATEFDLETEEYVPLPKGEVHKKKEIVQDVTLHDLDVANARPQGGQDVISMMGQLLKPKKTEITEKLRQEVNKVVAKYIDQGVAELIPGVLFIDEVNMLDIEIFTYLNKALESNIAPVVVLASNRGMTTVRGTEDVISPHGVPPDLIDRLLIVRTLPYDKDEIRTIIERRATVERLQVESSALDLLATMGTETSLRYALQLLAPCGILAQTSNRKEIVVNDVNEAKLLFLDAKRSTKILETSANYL
T3 sequence (Q12464 whole entry, chain 2 of 3): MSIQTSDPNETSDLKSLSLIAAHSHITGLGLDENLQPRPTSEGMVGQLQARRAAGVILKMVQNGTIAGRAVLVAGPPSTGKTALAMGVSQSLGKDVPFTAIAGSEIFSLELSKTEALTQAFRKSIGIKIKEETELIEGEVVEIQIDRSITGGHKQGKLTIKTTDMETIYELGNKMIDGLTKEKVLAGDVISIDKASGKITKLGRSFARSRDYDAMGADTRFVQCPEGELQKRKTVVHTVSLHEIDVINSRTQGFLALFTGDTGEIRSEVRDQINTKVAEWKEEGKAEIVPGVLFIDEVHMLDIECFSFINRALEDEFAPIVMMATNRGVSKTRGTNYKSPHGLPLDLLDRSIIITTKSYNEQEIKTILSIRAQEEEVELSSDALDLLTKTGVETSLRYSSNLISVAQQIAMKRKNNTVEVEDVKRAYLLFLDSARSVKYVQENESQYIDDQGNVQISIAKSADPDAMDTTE
T3 sequence (P25638 whole entry, chain 3 of 3): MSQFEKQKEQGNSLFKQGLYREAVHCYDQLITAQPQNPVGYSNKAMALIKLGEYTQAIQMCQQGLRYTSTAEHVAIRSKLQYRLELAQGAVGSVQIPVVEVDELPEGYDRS
T2 sequence (Q03940 whole entry, chain 1 of 2): as the sequence (Q03940 whole entry, chain 1 of 3) above
T2 sequence (Q12464 whole entry, chain 2 of 2): as the sequence (Q12464 whole entry, chain 2 of 3) above

Row | binding result [1] | binding result [7] | Binder | also measured
1 | binds | – | B1 | –
2 | binds | – | GST-Nop58-C (domain or fragment, S. cerevisiae, UniProt Q12499 285-447, looked up, also called pGST-Nop58-C; pGEX-Nop58-C; source: E. coli BL21(DE3) pRIL, purified (glutathione Sepharose 4B; MagneGST Glutathione Particles for the reconstitution with Rvb1/2 or R2TP); not shown: GST, N-terminal, kept) PNLTQLVGELVGARLIAHSGSLISLAKSPASTIQILGAEKALFRALKTKHDTPKYGLLYHASLVGQATGKNKGKIARVLAAKAAVSLRYDALAEDRDDSGDIGLESRAKVENRLSQLEGRDLRTTPKVVREAKKVEMTEARAYNADADTAKAASDSESDSDDE | binding result [2]: binds; binding result [3]: binds; binding result [4]: binds
3 | binds | – | B2 | –
4 | – | binds | B3 | binding result [5]: binds; binding result [6]: binds
5 | – | binds | B4 | –
